This is an account of results in patent US20160251695.

For this data set, the target named is T1, α-fructosyl-valyl-histidyl-leucyl-threonyl-proryl-glutamic acid.
T1 chain: VHLTPE
The settings on record: for αF6P oxidation activity: scale: relative value.

B1: CFP-T7-H2-62N (protein)
chain: MTSNRADTRVIVVGGGGTIGSSTALHLVRSGYAPANITVLDTFEIPSAQSAGHDLNKIMGINLRNKVDLQMSLEARQMWKEDELFQPFFHNTGRMDCEHTPEGIEDLKKLYQALHDAGAGLEKTHAWLDNEDEILSKMPLLQRDQIQGWKAIWSQDGGWLAAAKAINAIGQFLKERGVKFGFGGAGSFKQPLFDDEGTTCIGVETADGTKYYADKVVLAAGAWSPTLVDLEDQCCSKAWVYAHIQLTPEEAAEYKGVPVVYNGEFGFFFEPDEFGVIKVCDEFPGFSRFKEHQPYGAPSPKRISVPRSHAKHPTDTYPDASEVSIKKAIATFLPRFQDKELFNRALCWCTDTADAALLMCEHPKWKNFILATGDSGHSFKILPNVGKYVVELIEGRLPEEMAYQWRWRPGGDALKSRRAAPPKDLADMPGWKHDPKL
In the case of B1, the αF6P oxidation activity ratio (relative value (CFP-T7-H2 = 100)) amounted to 120.

B2: CFP-T7-H12 (protein)
chain: MTSNRADTRVIVVGGGGTIGSSTALHLVRSGYAPANITVLDTFEIPSAQSAGHDLNKIMGIDLRNKVDLQMSLEARQMWKEDELFQPFFHNTGRMDCEHTPEGIERLKKLYQALHDAGAGLEKTHAWLDNEDEILSKMPLLQRDQIQGWKAIWSQDGGWLAAAKAINAIGQFLKERGVKFGFGGAGSFKQPLFDDEGTTCIGVETADGTKYYADKVVLAAGAWSPTLVDLEDQCCSKAWVYAHIQLTPEEAAEYKGVPVVYNGEFGFFFEPDEFGVIKVCDEFPGFSRFKEHQPYGAPSPKRISVPRSHAKHPTDTYPDASEVSIKKAIATFLPRFQDKELFNRALCWCTDTADAALLMCEHPKWKNFILATGDSGHSFKILPNVGKYVVELIEGRLPEEMAYQWRWRPGGDALKSRRAAPPKDLADMPGWKHDPKL
Take B2: the αF6P oxidation activity ratio (relative value (CFP-T7-H6 = 100)) was found to be 636 and the αF6P oxidation activity came out at 11.6.

B3: CFP-T7-H10 (protein)
chain: MTSNRADTRVIVVGGGGTIGSSTALHLVRSGYAPANITVLDTFEIPSAQSAGHDLNKIMGIDLRNKVDLQMSLEARQMWKEDELFQPFFHNTGRMDCEHTPEGIEALKKLYQALHDAGAGLEKTHAWLDNEDEILSKMPLLQRDQIQGWKAIWSQDGGWLAAAKAINAIGQFLKERGVKFGFGGAGSFKQPLFDDEGTTCIGVETADGTKYYADKVVLAAGAWSPTLVDLEDQCCSKAWVYAHIQLTPEEAAEYKGVPVVYNGEFGFFFEPDEFGVIKVCDEFPGFSRFKEHQPYGAPSPKRISVPRSHAKHPTDTYPDASEVSIKKAIATFLPRFQDKELFNRALCWCTDTADAALLMCEHPKWKNFILATGDSGHSFKILPNVGKYVVELIEGRLPEEMAYQWRWRPGGDALKSRRAAPPKDLADMPGWKHDPKL
As for B3, the αF6P oxidation activity ratio (relative value (CFP-T7-H6 = 100)) is 301.

B4: CFP-T7-H8 (protein)
chain: MTSNRADTRVIVVGGGGTIGSSTALHLVRSGYAPANITVLDTFEIPSAQSAGHDLNKIMGIDLENKVDLQMSLEARQMWKEDELFQPFFHNTGRMDCEHTPEGIEDLKKLYQALHDAGAGLEKTHAWLDNEDEILSKMPLLQRDQIQGWKAIWSQDGGWLAAAKAINAIGQFLKERGVKFGFGGAGSFKQPLFDDEGTTCIGVETADGTKYYADKVVLAAGAWSPTLVDLEDQCCSKAWVYAHIQLTPEEAAEYKGVPVVYNGEFGFFFEPDEFGVIKVCDEFPGFSRFKEHQPYGAPSPKRISVPRSHAKHPTDTYPDASEVSIKKAIATFLPRFQDKELFNRALCWCTDTADAALLMCEHPKWKNFILATGDSGHSFKILPNVGKYVVELIEGRLPEEMAYQWRWRPGGDALKSRRAAPPKDLADMPGWKHDPKL
Consider B4, for which the αF6P oxidation activity ratio (relative value (CFP-T7-H6 = 100)) stood at 2.

B5: CFP-T7-H2 (protein)
chain: MTSNRADTRVIVVGGGGTIGSSTALHLVRSGYAPANITVLDTFEIPSAQSAGHDLNKIMGIALRNKVDLQMSLEARQMWKEDELFQPFFHNTGRMDCEHTPEGIEDLKKLYQALHDAGAGLEKTHAWLDNEDEILSKMPLLQRDQIQGWKAIWSQDGGWLAAAKAINAIGQFLKERGVKFGFGGAGSFKQPLFDDEGTTCIGVETADGTKYYADKVVLAAGAWSPTLVDLEDQCCSKAWVYAHIQLTPEEAAEYKGVPVVYNGEFGFFFEPDEFGVIKVCDEFPGFSRFKEHQPYGAPSPKRISVPRSHAKHPTDTYPDASEVSIKKAIATFLPRFQDKELFNRALCWCTDTADAALLMCEHPKWKNFILATGDSGHSFKILPNVGKYVVELIEGRLPEEMAYQWRWRPGGDALKSRRAAPPKDLADMPGWKHDPKL
With B5, the αF6P oxidation activity ratio (relative value (CFP-T7-H2 = 100)) came out at 100 and the αF6P oxidation activity is 0.0735.

B6: CFP-T7-H9 (protein)
chain: MTSNRADTRVIVVGGGGTIGSSTALHLVRSGYAPANITVLDTFEIPSAQSAGHDLNKIMGIDLHNKVDLQMSLEARQMWKEDELFQPFFHNTGRMDCEHTPEGIEDLKKLYQALHDAGAGLEKTHAWLDNEDEILSKMPLLQRDQIQGWKAIWSQDGGWLAAAKAINAIGQFLKERGVKFGFGGAGSFKQPLFDDEGTTCIGVETADGTKYYADKVVLAAGAWSPTLVDLEDQCCSKAWVYAHIQLTPEEAAEYKGVPVVYNGEFGFFFEPDEFGVIKVCDEFPGFSRFKEHQPYGAPSPKRISVPRSHAKHPTDTYPDASEVSIKKAIATFLPRFQDKELFNRALCWCTDTADAALLMCEHPKWKNFILATGDSGHSFKILPNVGKYVVELIEGRLPEEMAYQWRWRPGGDALKSRRAAPPKDLADMPGWKHDPKL
B6: the αF6P oxidation activity ratio (relative value (CFP-T7-H6 = 100)) was 44.

B7: CFP-T7-H2-62E (protein)
chain: MTSNRADTRVIVVGGGGTIGSSTALHLVRSGYAPANITVLDTFEIPSAQSAGHDLNKIMGIELRNKVDLQMSLEARQMWKEDELFQPFFHNTGRMDCEHTPEGIEDLKKLYQALHDAGAGLEKTHAWLDNEDEILSKMPLLQRDQIQGWKAIWSQDGGWLAAAKAINAIGQFLKERGVKFGFGGAGSFKQPLFDDEGTTCIGVETADGTKYYADKVVLAAGAWSPTLVDLEDQCCSKAWVYAHIQLTPEEAAEYKGVPVVYNGEFGFFFEPDEFGVIKVCDEFPGFSRFKEHQPYGAPSPKRISVPRSHAKHPTDTYPDASEVSIKKAIATFLPRFQDKELFNRALCWCTDTADAALLMCEHPKWKNFILATGDSGHSFKILPNVGKYVVELIEGRLPEEMAYQWRWRPGGDALKSRRAAPPKDLADMPGWKHDPKL
Consider B7, for which the αF6P oxidation activity ratio (relative value (CFP-T7-H2 = 100)) turned out to be 21.

B8: CFP-T7-H13 (protein)
chain: MTSNRADTRVIVVGGGGTIGSSTALHLVRSGYAPANITVLDTFEIPSAQSAGHDLNKIMGIDLRNKVDLQMSLEARQMWKEDELFQPFFHNTGRMDCEHTPEGIEDLKKLYQKLHDAGAGLEKTHAWLDNEDEILSKMPLLQRDQIQGWKAIWSQDGGWLAAAKAINAIGQFLKERGVKFGFGGAGSFKQPLFDDEGTTCIGVETADGTKYYADKVVLAAGAWSPTLVDLEDQCCSKAWVYAHIQLTPEEAAEYKGVPVVYNGEFGFFFEPDEFGVIKVCDEFPGFSRFKEHQPYGAPSPKRISVPRSHAKHPTDTYPDASEVSIKKAIATFLPRFQDKELFNRALCWCTDTADAALLMCEHPKWKNFILATGDSGHSFKILPNVGKYVVELIEGRLPEEMAYQWRWRPGGDALKSRRAAPPKDLADMPGWKHDPKL
With B8, the αF6P oxidation activity ratio (relative value (CFP-T7-H6 = 100)) turned out to be 207 and the αF6P oxidation activity was 4.33.

B9: CFP-T7-H11 (protein)
chain: MTSNRADTRVIVVGGGGTIGSSTALHLVRSGYAPANITVLDTFEIPSAQSAGHDLNKIMGIDLRNKVDLQMSLEARQMWKEDELFQPFFHNTGRMDCEHTPEGIEKLKKLYQALHDAGAGLEKTHAWLDNEDEILSKMPLLQRDQIQGWKAIWSQDGGWLAAAKAINAIGQFLKERGVKFGFGGAGSFKQPLFDDEGTTCIGVETADGTKYYADKVVLAAGAWSPTLVDLEDQCCSKAWVYAHIQLTPEEAAEYKGVPVVYNGEFGFFFEPDEFGVIKVCDEFPGFSRFKEHQPYGAPSPKRISVPRSHAKHPTDTYPDASEVSIKKAIATFLPRFQDKELFNRALCWCTDTADAALLMCEHPKWKNFILATGDSGHSFKILPNVGKYVVELIEGRLPEEMAYQWRWRPGGDALKSRRAAPPKDLADMPGWKHDPKL
On to B9, for which the αF6P oxidation activity ratio (relative value (CFP-T7-H6 = 100)) came to 951 and the αF6P oxidation activity was 12.5.

B10: CFP-T7-H2-62Q (protein)
chain: MTSNRADTRVIVVGGGGTIGSSTALHLVRSGYAPANITVLDTFEIPSAQSAGHDLNKIMGIQLRNKVDLQMSLEARQMWKEDELFQPFFHNTGRMDCEHTPEGIEDLKKLYQALHDAGAGLEKTHAWLDNEDEILSKMPLLQRDQIQGWKAIWSQDGGWLAAAKAINAIGQFLKERGVKFGFGGAGSFKQPLFDDEGTTCIGVETADGTKYYADKVVLAAGAWSPTLVDLEDQCCSKAWVYAHIQLTPEEAAEYKGVPVVYNGEFGFFFEPDEFGVIKVCDEFPGFSRFKEHQPYGAPSPKRISVPRSHAKHPTDTYPDASEVSIKKAIATFLPRFQDKELFNRALCWCTDTADAALLMCEHPKWKNFILATGDSGHSFKILPNVGKYVVELIEGRLPEEMAYQWRWRPGGDALKSRRAAPPKDLADMPGWKHDPKL
B10: the αF6P oxidation activity ratio (relative value (CFP-T7-H2 = 100)) came out at 11.

B11: CFP-T7-H6 (protein)
chain: MTSNRADTRVIVVGGGGTIGSSTALHLVRSGYAPANITVLDTFEIPSAQSAGHDLNKIMGIDLRNKVDLQMSLEARQMWKEDELFQPFFHNTGRMDCEHTPEGIEDLKKLYQALHDAGAGLEKTHAWLDNEDEILSKMPLLQRDQIQGWKAIWSQDGGWLAAAKAINAIGQFLKERGVKFGFGGAGSFKQPLFDDEGTTCIGVETADGTKYYADKVVLAAGAWSPTLVDLEDQCCSKAWVYAHIQLTPEEAAEYKGVPVVYNGEFGFFFEPDEFGVIKVCDEFPGFSRFKEHQPYGAPSPKRISVPRSHAKHPTDTYPDASEVSIKKAIATFLPRFQDKELFNRALCWCTDTADAALLMCEHPKWKNFILATGDSGHSFKILPNVGKYVVELIEGRLPEEMAYQWRWRPGGDALKSRRAAPPKDLADMPGWKHDPKL
On to B11, for which the αF6P oxidation activity ratio (relative value (CFP-T7-H2 = 100)) was found to be 513, the αF6P oxidation activity ratio (relative value (CFP-T7-H6 = 100)) stood at 100 and the αF6P oxidation activity turned out to be 3.

B12: CFP-T7-H7 (protein)
chain: MTSNRADTRVIVVGGGGTIGSSTALHLVRSGYAPANITVLDTFEIPSAQSAGHDLNKIMGIDLANKVDLQMSLEARQMWKEDELFQPFFHNTGRMDCEHTPEGIEDLKKLYQALHDAGAGLEKTHAWLDNEDEILSKMPLLQRDQIQGWKAIWSQDGGWLAAAKAINAIGQFLKERGVKFGFGGAGSFKQPLFDDEGTTCIGVETADGTKYYADKVVLAAGAWSPTLVDLEDQCCSKAWVYAHIQLTPEEAAEYKGVPVVYNGEFGFFFEPDEFGVIKVCDEFPGFSRFKEHQPYGAPSPKRISVPRSHAKHPTDTYPDASEVSIKKAIATFLPRFQDKELFNRALCWCTDTADAALLMCEHPKWKNFILATGDSGHSFKILPNVGKYVVELIEGRLPEEMAYQWRWRPGGDALKSRRAAPPKDLADMPGWKHDPKL
B12: the αF6P oxidation activity ratio (relative value (CFP-T7-H6 = 100)) turned out to be 17.
